This note sets out measurements from US20210261944, “Compositions and methods for ordered and continuous complementary DNA (cDNA) synthesis across non-continuous templates” (The Regents of the University of California, published 2021).

The target of series [1] is T1, BomoC(ed) R2 RT (deltaN274, D996A) (Bombyx mori).
T1 chain: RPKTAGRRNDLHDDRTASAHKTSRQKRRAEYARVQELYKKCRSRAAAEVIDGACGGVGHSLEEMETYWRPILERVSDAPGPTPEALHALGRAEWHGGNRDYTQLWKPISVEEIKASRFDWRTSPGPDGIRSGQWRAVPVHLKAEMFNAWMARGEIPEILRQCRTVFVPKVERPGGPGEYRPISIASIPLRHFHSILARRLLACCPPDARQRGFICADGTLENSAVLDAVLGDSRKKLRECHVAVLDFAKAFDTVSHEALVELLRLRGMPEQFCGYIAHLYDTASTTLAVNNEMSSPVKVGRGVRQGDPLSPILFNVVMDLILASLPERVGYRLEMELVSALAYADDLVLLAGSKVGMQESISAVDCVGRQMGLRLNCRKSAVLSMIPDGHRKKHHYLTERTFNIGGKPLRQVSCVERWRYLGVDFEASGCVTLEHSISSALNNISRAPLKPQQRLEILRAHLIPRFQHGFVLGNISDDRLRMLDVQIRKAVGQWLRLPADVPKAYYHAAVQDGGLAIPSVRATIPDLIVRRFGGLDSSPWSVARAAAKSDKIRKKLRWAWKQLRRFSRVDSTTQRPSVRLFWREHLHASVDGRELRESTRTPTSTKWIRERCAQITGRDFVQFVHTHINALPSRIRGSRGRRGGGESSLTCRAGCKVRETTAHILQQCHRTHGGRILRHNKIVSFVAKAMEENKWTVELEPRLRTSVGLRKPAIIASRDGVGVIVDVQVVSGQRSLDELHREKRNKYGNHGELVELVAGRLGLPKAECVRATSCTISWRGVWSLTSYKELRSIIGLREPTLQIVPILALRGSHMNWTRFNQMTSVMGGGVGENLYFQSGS
As to the kind of experiment: primer extended across ddA-tailed miRNA pool; full-length cDNA library; Mg2+, 37C; enzyme named as modified R2 RT. To be noted: tags: N-terminal MBP, C-terminal 6xHis; partial duplex, +1T 3' overhang. The source says: (§1) FIG. 15B. Analysis of reaction products by denaturing PAGE and SYBR Gold staining using a template RNA pool of 963 equimolar miRNA sequences (miRXplore). The full-length cDNA library (labeled cDNA+adaptor template) and some cDNA product from copying of the miRNA template only (labeled cDNA) are the predominant products. Excess adaptor primer and adaptor template are also stained. “No enz” is the no enzyme control. Lane+/− indicates addition of RNase A after product denaturation, which removes the non-extended strand of the primer duplex and truncates the ˜70 nt 3′ adaptor template. The library was sequenced with results shown in comparison to a low-cycle-PCR library in FIG. 16B.
(§2) Typical assays for cDNA synthesis by processive use of multiple template molecules (i.e., serial template copying) used a DNA primer that was annealed in full or part to a second strand, usually RNA, to generate a primer 3′ end that was blunt duplex or a short 3′ overhang of defined sequence. Templates included chemically synthesized RNA or DNA oligonucleotides and/or RNAs purified after T7 RNA polymerase transcription; templates were also isolated from biological sources. Reaction conditions were typically 20 mM Tris-HCl pH 7.5, 150 mM KCl, 2 mM MgCl₂, 10% glycerol with incubations at room temperature or 37° C. […]

In series [2] the target is T1, BomoC(ed) R2 RT (deltaN274, D996A). The experiment in a line: used as second (terminal) template in ordered template relay; Mg2+, 37C. To be noted: tags: N-terminal MBP, C-terminal 6xHis; partial duplex, 3' C.
From the text: as §1, §2

For series [3] the target is unchanged. As to the kind of experiment: primer for low-PCR cDNA library; Mg2+, 37C. To be noted: tags: N-terminal MBP, C-terminal 6xHis; partial duplex.

B1: no-PCR adaptor primer partial duplex c5p(FL)/c5pt (DNA:RNA)
DNA: CAAGCAGAAGACGGCATACGAGATGACGAGAGGTGACTGGAGTTCAGACGTGTGCTCTTCCGATCT
RNA: GAUCGGAAGAGCACACGUCUGAACUCCAGU
modifications: 3' C3 spacer on RNA strand
For the molecule B1, the binding result in series [1] was “binds”.

B2: no-PCR adaptor template partial duplex c3t(FL)/c3t_comp (mixed)
DNA: AATGATACGGCGACCACCGAGATCTACACCGCAGACGACACTCTTTCCCTACACGACGCTCTTCCGATCTC
RNA: GUGUAGAUCUCGGUGGUCGCCGUAUCAUU
modifications: 5' amino modifier C6, mixed DNA/ribonucleotides; complement 3' C3 spacer
As to B2, the binding result in series [2] is on record as “binds”.

B3: low-PCR adaptor primer duplex c5p(uni)/c5pt (DNA:RNA)
DNA: GTGACTGGAGTTCAGACGTGTGCTCTTCCGATCC
RNA: GAUCGGAAGAGCACACGUCUGAACUCCAGU
modifications: 3' C3 spacer on RNA strand
Take B3: the binding result in series [3] is “binds”.
